Laboratory results reported in patent US12467929.

Legend:
[1] = target: recombinant UBE3A protein (Homo sapiens (Human)) (UniProt Q05086); assay: 3-step Simoa; capture GTX; UBE3A 0.122 ng/ml
[2] = target: recombinant UBE3A protein (Homo sapiens (Human)) (UniProt Q05086); assay: Simoa; capture GTX, no helper beads; 3E5 0.2 ug/ml; UBE3A 0.00128 ng/ml
[3] = target: recombinant UBE3A protein (Homo sapiens (Human)) (UniProt Q05086); assay: Simoa; capture GTX; 3E5 0.1 ug/ml; UBE3A 0.0320 ng/ml
[4] = target: recombinant UBE3A protein (Homo sapiens (Human)) (UniProt Q05086); assay: Simoa head-to-head, Table 11; capture GTX; UBE3A 100 ng/ml
[5] = target: recombinant UBE3A protein (Homo sapiens (Human)) (UniProt Q05086); assay: Simoa head-to-head, Table 11; capture GTX; UBE3A 500 ng/ml
[6] = target: recombinant UBE3A protein (Homo sapiens (Human)) (UniProt Q05086); assay: Simoa; capture GTX; SBG 150 pm; UBE3A 4.00 ng/ml
[7] = target: recombinant UBE3A protein (Homo sapiens (Human)) (UniProt Q05086); assay: Simoa; capture GTX, no helper beads; 3E5 0.1 ug/ml; UBE3A 0.800 ng/ml
[8] = target: recombinant UBE3A protein (Homo sapiens (Human)) (UniProt Q05086); assay: Simoa head-to-head, Table 11; capture MS 2F6; UBE3A 20.0 ng/ml
[9] = target: recombinant UBE3A protein (Homo sapiens (Human)) (UniProt Q05086); assay: Simoa; capture GTX + helper beads; 3E5 0.2 ug/ml; UBE3A 20.0 ng/ml
[10] = target: recombinant UBE3A protein (Homo sapiens (Human)) (UniProt Q05086); assay: Simoa; capture GTX; 3E5 0.1 ug/ml; UBE3A 0.00128 ng/ml
[11] = target: recombinant UBE3A protein (Homo sapiens (Human)) (UniProt Q05086); assay: 3-step Simoa, 120 min bead step; capture GTX; UBE3A 20.0 ng/ml
[12] = target: recombinant UBE3A protein (Homo sapiens (Human)) (UniProt Q05086); assay: Simoa; capture GTX; SBG 100 pm; UBE3A 4.00 ng/ml
[13] = target: recombinant UBE3A protein (Homo sapiens (Human)) (UniProt Q05086); assay: Simoa; capture GTX, no helper beads; 3E5 0.1 ug/ml; UBE3A 0.0320 ng/ml
[14] = target: recombinant UBE3A protein (Homo sapiens (Human)) (UniProt Q05086); assay: Simoa head-to-head, Table 11; capture MS 2F6; UBE3A 100 ng/ml
[15] = target: recombinant UBE3A protein (Homo sapiens (Human)) (UniProt Q05086); assay: Simoa; capture GTX; 3E5 0.4 ug/ml; UBE3A 0.800 ng/ml
[16] = target: recombinant UBE3A protein (Homo sapiens (Human)) (UniProt Q05086); assay: Simoa; capture GTX; SBG 75 pm; UBE3A 20.0 ng/ml
[17] = target: recombinant UBE3A protein (Homo sapiens (Human)) (UniProt Q05086); assay: 3-step Simoa, 120 min bead step; capture GTX; UBE3A 0.0320 ng/ml
[18] = target: recombinant UBE3A protein (Homo sapiens (Human)) (UniProt Q05086); assay: 3-step Simoa, 120 min bead step; capture GTX; UBE3A 500 ng/ml
[19] = target: recombinant UBE3A protein (Homo sapiens (Human)) (UniProt Q05086); assay: Simoa head-to-head, Table 11; capture GTX; UBE3A 0.80 ng/ml
[20] = target: recombinant UBE3A protein (Homo sapiens (Human)) (UniProt Q05086); assay: 3-step Simoa; capture MS 2F6; UBE3A 0.010 ng/ml
[21] = target: recombinant UBE3A protein (Homo sapiens (Human)) (UniProt Q05086); assay: Simoa; capture GTX + helper beads; 3E5 0.1 ug/ml; UBE3A 0.00128 ng/ml

UniProt Q05086, sequence (Q05086 whole entry): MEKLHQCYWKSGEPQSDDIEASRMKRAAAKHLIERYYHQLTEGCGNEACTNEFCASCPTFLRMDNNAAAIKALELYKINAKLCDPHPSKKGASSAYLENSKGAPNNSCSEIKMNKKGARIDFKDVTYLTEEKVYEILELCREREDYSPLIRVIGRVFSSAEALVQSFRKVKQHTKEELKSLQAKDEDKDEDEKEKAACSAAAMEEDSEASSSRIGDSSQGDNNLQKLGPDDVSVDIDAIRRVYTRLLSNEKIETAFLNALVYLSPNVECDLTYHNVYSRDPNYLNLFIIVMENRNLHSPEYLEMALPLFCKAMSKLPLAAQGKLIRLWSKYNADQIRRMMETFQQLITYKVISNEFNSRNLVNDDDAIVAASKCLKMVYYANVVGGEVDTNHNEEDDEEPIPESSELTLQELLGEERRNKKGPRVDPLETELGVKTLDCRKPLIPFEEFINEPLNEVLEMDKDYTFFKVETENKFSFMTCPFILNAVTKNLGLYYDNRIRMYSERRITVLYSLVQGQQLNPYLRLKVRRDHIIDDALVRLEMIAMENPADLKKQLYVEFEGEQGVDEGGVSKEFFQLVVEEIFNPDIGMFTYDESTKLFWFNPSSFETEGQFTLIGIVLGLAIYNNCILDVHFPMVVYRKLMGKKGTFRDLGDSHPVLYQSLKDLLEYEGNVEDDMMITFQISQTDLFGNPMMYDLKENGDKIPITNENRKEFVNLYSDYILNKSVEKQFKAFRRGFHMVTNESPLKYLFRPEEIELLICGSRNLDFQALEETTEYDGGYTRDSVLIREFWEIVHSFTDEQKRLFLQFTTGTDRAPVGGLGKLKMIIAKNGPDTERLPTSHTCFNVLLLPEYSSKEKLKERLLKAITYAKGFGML

## NB500-240 (Novus) (antibody)
[1]
  AEB1: 0.0021
  AEB2: 0.002
  Ave AEB: 0.002
  Signal to Background: 0.624

## anti-UBE3A antibody 3E5 (SAB1404508-100 ug, Millipore-Sigma)
[2]
  AEB1: 0.0099
  AEB2: 0.0139
  Average AEB: 0.0119
  Signal to Background: 1.23
[3]
  AEB1: 0.0351
  AEB2: 0.04
  AEB3: 0.0401
  Average AEB: 0.0384
  Signal to Background: 1.99
[4]
  AEB1: 3.35
  AEB2: 3.51
  Ave AEB: 3.43
  Signal to Background: 419
[5]
  AEB1: 9.97
  AEB2: 10.3
  Ave AEB: 10.1
  Signal to Background: 1240
[6]
  AEB1: 0.907
  AEB2: 0.938
  AEB3: 0.927
  Average AEB: 0.924
  Signal to Background: 69.7
[7]
  AEB1: 0.164
  AEB2: 0.157
  Average AEB: 0.16
  Signal to Background: 27.9
[8]
  AEB1: 0.352
  AEB2: 0.348
  Ave AEB: 0.35
  Signal to Background: 92.5
[9]
  AEB1: 5.63
  AEB2: 5.39
  Average AEB: 5.51
  Signal to Background: 570
[10]
  AEB1: 0.0242
  AEB2: 0.0239
  AEB3: 0.0247
  Average AEB: 0.0243
  Signal to Background: 1.26
[11]
  AEB1: 2.8
  AEB2: 2.88
  Ave AEB: 2.84
  Signal to Background: 1660
[12]
  AEB1: 0.739
  AEB2: 0.78
  AEB3: 0.707
  Average AEB: 0.742
  Signal to Background: 88.5
[13]
  AEB1: 0.0108
  AEB2: 0.0159
  Average AEB: 0.0133
  Signal to Background: 2.33
[14]
  AEB1: 1.79
  AEB2: 1.84
  Ave AEB: 1.81
  Signal to Background: 479
[15]
  AEB1: 0.509
  AEB2: 0.48
  AEB3: 0.478
  Average AEB: 0.489
  Signal to Background: 7.81
[16]
  AEB1: 2.44
  AEB2: 2.81
  AEB3: 2.75
  Average AEB: 2.67
  Signal to Background: 611
[17]
  AEB1: 0.0115
  AEB2: 0.0095
  Ave AEB: 0.0105
  Signal to Background: 6.15
[18]
  AEB1: 16.8
  AEB2: 16.8
  Ave AEB: 16.8
  Signal to Background: 9850
[19]
  AEB1: 0.0916
  AEB2: 0.0961
  Ave AEB: 0.0939
  Signal to Background: 11.5
[20]
  AEB1: 0.0035
  AEB2: 0.0048
  Ave AEB: 0.0042
  Signal to Background: 1.06
[21]
  AEB1: 0.0065
  AEB2: 0.0083
  Average AEB: 0.0074
  Signal to Background: 1.29
